Test results reported in patent US20240343823A1 (Ablynx, published 2024).
Where a chain is given by its changes, count along the chain named. Like-named read-outs stand apart in the source and are kept apart here.

Tests used:
[1] = molecular target: T1, human GPC3 on tumor cell lines (HepG2, Huh-7, NCI-H661, MKN-45, NCI-H23, BxPC-3, NCI-H292) (human, UniProt P51654 25-554); assay: cell-based or functional assay
[2] = molecular target: T1, human GPC3 on tumor cell lines (HepG2, …); assay: cell-based or functional assay; remark: listed apart in the source
[3] = molecular target: T1, human GPC3 on tumor cell lines (HepG2, …); assay: cell-based or functional assay; remark: listed apart in the source
[4] = molecular target: T1, human GPC3 on tumor cell lines (HepG2, …); assay: cell-based or functional assay; remark: listed apart in the source
[5] = molecular target: T1, human GPC3 on tumor cell lines (HepG2, …); assay: cell-based or functional assay; remark: listed apart in the source
[6] = molecular target: T1, human GPC3 on tumor cell lines (HepG2, …); assay: cell-based or functional assay; remark: listed apart in the source
[7] = molecular target: T1, human GPC3 on tumor cell lines (HepG2, …); assay: cell-based or functional assay; remark: listed apart in the source
[8] = molecular target: T1, human GPC3 on tumor cell lines (HepG2, …); assay: flow cytometry on HepG2 cells
[9] = molecular target: T1, human GPC3 on tumor cell lines (HepG2, …); assay: flow cytometry on Huh-7 cells
[10] = molecular target: T1, human GPC3 on tumor cell lines (HepG2, …); assay: flow cytometry on HepG2 and Huh-7 cells
Method: Periplasmic extracts were screened for human and cyno GPC3 binding in flow cytometry using CHO Flp-In cells (Invitrogen cat nr. K6010) expressing either human GPC3 (accession number P51654; Q25-R358, S359-H580) or cyno GPC3 (accession number P51654; Q3-R358; S359-H559), respectively. In brief, 1×10⁵ cells were incubated in 1:5 diluted periplasmic extracts for 30 min at 4° C., and then washed 3 times. As a control, the parental CHO Flp-In cell line (Invitrogen cat nr. K6010) was included. […] Samples were washed and resuspended in FACS Buffer (D-PBS (Gibco) with 10% FBS (Sigma) and 0.05% sodium azide (Merck)) supplemented with 5 nM TOPRO3 (Molecular Probes, cat nr T3605). Cell suspensions were then analyzed on a FACS Array. Gating was set on live, intact cells using forward/side scatter and TOPRO3 channel fluorescence parameters.
Variants were evaluated for binding to HepG2, Huh-7 and CHO Flip-In cyno-GPC3 cells by flow cytometry, as described in Example 1.

[11] = molecular target: T2, cyno GPC3 expressed on CHO Flp-In cells (cynomolgus); assay: flow cytometry on CHO Flp-In cyno GPC3 cells
T2 construct: range 3-559; On cells; also called cyGPC3 CHO; CHO-cGPC3

[12] = molecular target: T2, cyno GPC3 expressed on CHO Flp-In cells; assay: flow cytometry on CHO Flp-In cyno GPC3 cells; remark: listed apart in the source

B1: A022600168 (other)
chain: DVQLVESGGGVVQPGGSLRLSCVASGYVHKINFYGWYRQAPGKEREKVAHISIGDQTDYADSAKGRFTISRDESKNTVYLQMNSLRPEDTAAYYCRALSRIWPYDYWGQGTLVTVSSGGGGSEVQLVESGGGLVQPGGSLRLSCVASGFTFSSFAMTWVRRPPGKGLEWVATITNGGVTSYRDSVKGRFTISRDNAKNTLYLEMTSLNPEDTAVYICANARRTGPRAPTDIGSYRGQGTLVTVSSGGGGSGGGGSGGGGSGGGGSGGGGSGGGGSGGGGSEVQLVESGGGLVQPGGSLRLSCVASGSIFRSVFSSSTMEWYRQPPGKKRELVARIAPGDGTNYGALYADSVKGRFTISRDDAKKTVDLQMNSLKPEDTGVYFCASGVAWGQGTLVTVSSGGGGSGGGGSGGGGSGGGGSGGGGSGGGGSGGGGSEVQLVESGGGVVQPGGSLRLSCAASGFTFRSFGMSWVRQAPGKGPEWVSSISGSGSDTLYADSVKGRFTISRDNSKNTLYLQMNSLRPEDTALYYCTIGGSLSRSSQGTLVTVSSA
- HepG2 on Incucyte IC50 [1]: 0.367 nM
- HepG2 on Incucyte Max % killing [1]: 103%
- Huh7 on xCELLigence IC50 [1]: 0.198 nM
- Huh7 on xCELLigence Max % killing [1]: 107%
- HepG2 on Incucyte IC50 [2]: 0.367 nM
- HepG2 on Incucyte Max % killing [2]: 103%
- Huh7 on xCELLigence IC50 [2]: 0.198 nM
- Huh7 on xCELLigence Max % killing [2]: 107%
- HepG2 on Incucyte IC50 [3]: 0.367 nM
- HepG2 on Incucyte Max % killing [3]: 103%
- Huh7 on xCELLigence IC50 [3]: 0.198 nM
- Huh7 on xCELLigence Max % killing [3]: 107%
- IC50 (M), xCELLigence human TDC assay, Hep-G2 [4]: 7.3e-11 M
- IC50 (M), xCELLigence human TDC assay, Huh-7 [4]: 2.4e-11 M
- IC50 (M), xCELLigence human TDC assay, NCI-H661 [4]: 1.4e-10 M

B2: A022600167 (other)
chain: DVQLVESGGGVVQPGGSLRLSCVASGYVHKINFYGWYRQAPGKEREKVAHISIGDQTDYADSAKGRFTISRDESKNTVYLQMNSLRPEDTAAYYCRALSRIWPYDYWGQGTLVTVSSGGGGSEVQLVESGGGLVQPGGSLRLSCVASGFTFSSFAMTWVRRPPGKGLEWVATITNGGVTSYRDSVKGRFTISRDNAKNTLYLEMTSLNPEDTAVYICANARRTGPRAPTDIGSYRGQGTLVTVSSGGGGSGGGGSGGGGSGGGGSGGGGSGGGGSGGGGSEVQLVESGGGVVQPGGSLRLSCAASGFTFRSFGMSWVRQAPGKGPEWVSSISGSGSDTLYADSVKGRFTISRDNSKNTLYLQMNSLRPEDTALYYCTIGGSLSRSSQGTLVTVSSA
- HepG2 on Incucyte IC50 [1]: 1.92 nM
- HepG2 on Incucyte Max % killing [1]: 98%
- Huh7 on xCELLigence IC50 [1]: 8.61 nM
- Huh7 on xCELLigence Max % killing [1]: 91%
- HepG2 on Incucyte IC50 [2]: 1.92 nM
- HepG2 on Incucyte Max % killing [2]: 98%
- Huh7 on xCELLigence IC50 [2]: 8.61 nM
- Huh7 on xCELLigence Max % killing [2]: 91%
- HepG2 on Incucyte IC50 [3]: 1.92 nM
- HepG2 on Incucyte Max % killing [3]: 98%
- Huh7 on xCELLigence IC50 [3]: 8.61 nM
- Huh7 on xCELLigence Max % killing [3]: 91%
- IC50 (M), xCELLigence human TDC assay, Hep-G2 [4]: 9.2e-11 M
- IC50 (M), xCELLigence human TDC assay, Huh-7 [4]: 4.7e-10 M
- IC50 (M), xCELLigence human TDC assay, NCI-H661 [4]: 1.8e-10 M

B3: A022600103 (other)
chain: B2 chain with A92L
- IC50 (M), Incucyte human TDC HepG2-Nuclight green assay [5]: 2.04e-09 M
- Max % Killing, Incucyte human TDC HepG2-Nuclight green assay [5]: 92%
- IC50 (M), Incucyte human TDC HepG2-Nuclight green assay [6]: 5.43e-10 M
- Max % Killing, Incucyte human TDC HepG2-Nuclight green assay [6]: 90%
- HepG2 on Incucyte IC50 [1]: 1.23 nM
- HepG2 on Incucyte Max % killing [1]: 96%
- Huh7 on xCELLigence IC50 [1]: 7.11 nM
- Huh7 on xCELLigence Max % killing [1]: 71%

B4: A022600027 (other)
chain: DVQLVESGGGLVQPGGSLRLSCVASGDVHKINFLGWYRQAPGKEREKVAHISIGDQTDYADSAKGRFTISRDESKNMVYLQMNSLKPEDTAVYFCRAFSRIYPYDYWGQGTLVTVSSGGGGSGGGGSGGGGSGGGGSGGGGSGGGGSGGGGSEVQLVESGGGLVQPGGSLRLSCVASGFTFSSFAMTWVRRPPGKGLEWVATITNGGVTSYRDSVKGRFTISRDNAKNTLYLEMTSLNPEDTAVYICANARRTGPRAPTDIGSYRGQGTLVTVSSGGGGSGGGGSGGGGSGGGGSGGGGSGGGGSGGGGSEVQLVESGGGVVQPGGSLRLSCAASGLTFSSYAMGWFRQAPGKERERVVSISRGGGYTYYADSVKGRFTISRDNSENTVYLQMNSLRPEDTALYYCAAARYWATGSEYEFDYWGQGTLVTVSS
- IC50 (M), Incucyte human TDC HepG2-Nuclight green assay [7]: 8.6e-09 M

B5: A022600345 (VHH)
VHH: EVQLVESGGGVVQPGGSLRLSCAASGFTFSSFAMTWVRRPPGKGLEWVATITNAGVTSYADSVKGRFTISRDNAKNTLYLQMNSLRPEDTALYICANARRTGPRAPTDIGSYRGQGTLVTVSS
- EC50 [8]: 0.391 nM
- EC50 [9]: 0.276 nM
- fold increase in binding potency against parental A0226018C08 [10]: 2 fold
- fold increase in binding potency against parental A0226018C08 [11]: 2 fold
- EC50 [12]: 0.15 nM

B6: A022600351 (VHH)
VHH: B5 VHH with A54K
notes: also called A0226000351
- EC50 [8]: 0.431 nM
- EC50 [9]: 0.477 nM
- fold increase in binding potency against parental A0226018C08 [10]: 2 fold
- fold increase in binding potency against parental A0226018C08 [11]: 2 fold
- EC50 [12]: 0.21 nM

B7: A022600102 (other)
chain: DVQLVESGGGVVQPGGSLRLSCVASGYVHKINFYGWYRQAPGKEREKVAHISIGDQTDYADSAKGRFTISRDESKNTVYLQMNSLRPEDTALYYCRALSRIWPYDYWGQGTLVTVSSAAAEVQLVESGGGLVQPGGSLRLSCVASGFTFSSFAMTWVRRPPGKGLEWVATITNGGVTSYRDSVKGRFTISRDNAKNTLYLEMTSLNPEDTAVYICANARRTGPRAPTDIGSYRGQGTLVTVSSGGGGSGGGGSGGGGSGGGGSGGGGSGGGGSGGGGSEVQLVESGGGVVQPGGSLRLSCAASGFTFRSFGMSWVRQAPGKGPEWVSSISGSGSDTLYADSVKGRFTISRDNSKNTLYLQMNSLRPEDTALYYCTIGGSLSRSSQGTLVTVSSA
- IC50 (M), Incucyte human TDC HepG2-Nuclight green assay [5]: 1.72e-09 M
- Max % Killing, Incucyte human TDC HepG2-Nuclight green assay [5]: 94%

B8: A022600096 (other)
chain: DVQLVESGGGLVQPGGSLRLSCVASGYVHKINFYGWYRQAPGKEREKVAHISIGDQTDYADSAKGRFTISRDESKNTVYLQMNSLRPEDTALYYCRALSRIWPYDYWGQGTLVTVSSGGGGSGGGGSGGGGSGGGGSGGGGSGGGGSGGGGSEVQLVESGGGLVQPGGSLRLSCVASGFTFSSFAMTWVRRPPGKGLEWVATITNGGVTSYRDSVKGRFTISRDNAKNTLYLEMTSLNPEDTAVYICANARRTGPRAPTDIGSYRGQGTLVTVSSGGGGSGGGGSGGGGSGGGGSGGGGSGGGGSGGGGSEVQLVESGGGVVQPGGSLRLSCAASGFTFRSFGMSWVRQAPGKGPEWVSSISGSGSDTLYADSVKGRFTISRDNSKNTLYLQMNSLRPEDTALYYCTIGGSLSRSSQGTLVTVSSA
- IC50 (M), Incucyte human TDC HepG2-Nuclight green assay [5]: 1.4e-09 M
- Max % Killing, Incucyte human TDC HepG2-Nuclight green assay [5]: 72%
